Reference: PMC11076555, “Dishevelled2 activates WGEF via its interaction with a unique internal peptide motif of the GEF” (Communications Biology, 2024)

T1: Dvl2^PDZ (PDZ domain of human Dishevelled2) (Homo sapiens, UniProt O14641)
T1 construct: introducing a stop codon after C354 residue of Dvl2^PDZ to eliminate the fused peptide, cloned at the C-termini of PDZ; 6xHis (N, cleaved yes); host or cells: E. coli Rosetta (DE3)
T1 sequence (O14641 267-339 limits assumed): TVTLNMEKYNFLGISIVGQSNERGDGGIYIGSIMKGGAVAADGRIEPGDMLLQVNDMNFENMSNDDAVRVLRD


Columns and labels:
xWGEF330 = experiment: In vitro guanine nucleotide exchange (GEF) assay, activation of xWGEF330 by Dvl2^PDZ; type: biochemical, Xenopus laevis; settings: 5 µM xWGEF330, 2 µM Mant-GDP loaded RhoA, 25 °C, triplicates
Procedure: Guanine nucleotide exchange assays were carried out using RhoA loaded with fluorescently labelled Mant-GDP[63],[64]. Briefly, 150 μM of RhoA was incubated with 5 Molar excess of fluorescent label, i.e., Mant-GDP in a buffer containing 10 mM Tris pH 8, 150 mM NaCl, 2 mM DTT, 5 mM EDTA, 0.5 mM MgCl2 and 5% Glycerol. The reaction was incubated on ice for 30 min, followed by the addition of 10 mM MgCl2 to stop the reaction. Excess Mant-GDP was removed through buffer exchange and Mant-GDP loaded RhoA was concentrated and stored at −80 °C. For assays, 2 μM of Mant-GDP loaded RhoA was incubated with 5 μM of xWGEF in the presence or absence of hDvl2^PDZ (0 μM, 25 μM and 50 μM) for 30 min at 25 °C. […] Once the fluorescence was stable, excess GTP (10x of labelled GTPase) was added to start the exchange reaction. […] A decrease in fluorescence was recorded using a BioTek Cytation5 plate reader with excitation and emission of 360 and 440 nm, respectively. Fluorescence was normalized and decrease was fitted using a single exponential decay mode in GraphPad Prism. […]
Guanine nucleotide exchange assays were performed in triplicates. Fluorescence decrease was fitted using a single exponential decay mode in GraphPad Prism. […]

[1] = biological target: T1, Dvl2^PDZ (PDZ domain of human Dishevelled2); experiment: Microscale thermophoresis (MST) binding to Dvl2^PDZ; settings: Monolith NT.115, 50 nM Red-maleimide labelled Dvl2^PDZ, 10 mM Tris–HCl pH 8, 150 mM NaCl, 2 mM DTT, 5% glycerol, 0.05% Tween20, 30 min at 25 °C, peptides diluted 1:2 16 times from ~3.4 mM, hWGEF 138–0.0042 µM, Kd fit model, triplicates, read-out: Kd (dissociation constant) for Dvl2^PDZ
Procedure: MST experiments were performed using Monolith NT.115 instrument from Nanotemper technologies. Dvl2^PDZ domain was fluorescently labelled as per the instructions, using Monolith Redmaleimide 2nd generation-cysteine reactive label. The experimental condition consists of 10 mM Tris–HCl pH8, 150 mM NaCl, 2 mM DTT, 5% Glycerol and 0.05% Tween20. For Dvl2^PDZ-peptide affinity determination, synthetic WGEF peptides were serially diluted (1:2) 16 times, starting from an approximate concentration of 3.4 mM. 50 nM of fluorescently labelled Dvl2^PDZ domain was added to the serially diluted peptides, followed by incubation at 25 °C for 30 minutes. Thermophoresis signals were recorded at 20% of excitation power and 40% MST at 25 °C. Data was fitted using the Kd fit model in the MO. Affinity Analysis v2.3 software. Like peptides, hWGEF (330–581) protein was serially diluted to obtain a protein concentration range of 138–0.0042 µM. Experimental conditions were the same as mentioned above for peptides. […]
Guanine nucleotide exchange assays were performed in triplicates. Fluorescence decrease was fitted using a single exponential decay mode in GraphPad Prism. […] Statistical significance was calculated using ordinary One-way ANOVA with multiple comparisons. * Represents adjust P value with statistical significance of ****P < 0.0001, ***P < 0.001, **P < 0.01 and *P ≤ 0.01. […]

Row | Kd [1] | Molecule | Change in GEF activity of xWGEF330 (xWGEF330; 25 µM Dvl2^PDZ) | Change in GEF activity of xWGEF330 (xWGEF330; 50 µM Dvl2^PDZ (10-fold excess))
1 |  | Dvl2^PDZ: recombinant PDZ domain of human Dishevelled2 (protein, Monolith Red-maleimide 2nd generation cysteine-reactive fluorescent label (in the MST experiments); left off: His6, N-terminal, cleaved, recombinant PDZ domain of human Dishevelled2) MSLNIITVTLNMEKYNFLGISIVGQSNERGDGGIYIGSIMKGGAVAADGRIEPGDMLLQVNDMNFENMSNDDAVRVLRDIVHKPGPIVLTVAKC | did not show any observable change | fourfold increase
2 | 7.9 ± 0.3 µM | hWGEF: recombinant human WGEF construct, residues from 330 to 581 (protein, left off: GST, N-terminal, cleaved) PPRANLSPSSSFRAQRSARGSTFSLWQDIPDVRGSGVLATLSLRDCKLQEAKFELITSEASYIHSLSVAVGHFLGSAELSECLGAQDKQWLFSKLPEVKSTSERFLQDLEQRLEADVLRFSVCDVVLDHCPAFRRVYLPYVTNQAYQERTYQRLLLENPRFPGILARLEESPVCQRLPLTSFLILPFQRITRLKMLVENILKRTAQGSEDEDMATKAFNALKELVQECNASVQSMKRTEELIHLSKKIHFEG |  | 
